Values quoted from earlier work, collected in article PMC9966187.

Key:
[1] = target: C-(IELFQAR) peptide
[2] = target: C-(IEELQAR) peptide

Kd [1]: 16 µM | Kd [2]: 35 µM
Substance: E-selectin (from UniProt P16581)
